The record followed here is patent WO2005003174A1 (dated 2005).

In the experiment the target is T1, fusion protein consisting of soluble CD64 linked to the Fc portion of human IgM (human, UniProt P12314 16-292; P01871 106-453, limits assumed).
T1 construct: domain: soluble CD64;domain: Fc portion; Used as a supernatant and detected with alkaline phosphatase labelled goat anti-human IgM; also called soluble CD64-IgM fusion protein
In words: bispecific ELISA: PsaA coated, detection with soluble CD64-IgM fusion and anti-human IgM.

T1 sequence (P12314 other isoform, or with tags, fused parts or gaps limits assumed): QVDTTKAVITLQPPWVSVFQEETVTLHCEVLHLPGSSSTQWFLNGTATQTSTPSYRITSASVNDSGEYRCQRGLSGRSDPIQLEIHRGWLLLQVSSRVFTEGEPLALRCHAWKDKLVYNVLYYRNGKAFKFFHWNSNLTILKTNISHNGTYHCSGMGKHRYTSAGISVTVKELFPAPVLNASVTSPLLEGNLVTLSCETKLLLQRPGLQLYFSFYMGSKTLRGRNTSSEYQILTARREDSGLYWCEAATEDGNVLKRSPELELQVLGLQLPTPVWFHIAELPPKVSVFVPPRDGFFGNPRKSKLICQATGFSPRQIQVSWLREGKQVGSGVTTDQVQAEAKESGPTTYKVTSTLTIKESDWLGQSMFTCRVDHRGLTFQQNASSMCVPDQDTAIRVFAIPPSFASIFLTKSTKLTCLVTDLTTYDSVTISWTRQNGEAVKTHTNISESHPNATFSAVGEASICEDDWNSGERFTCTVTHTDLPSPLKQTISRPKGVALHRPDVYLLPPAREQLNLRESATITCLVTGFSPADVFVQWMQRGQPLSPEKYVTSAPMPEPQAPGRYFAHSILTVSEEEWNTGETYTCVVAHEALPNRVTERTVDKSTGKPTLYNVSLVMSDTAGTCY

B1: F(ab')2 fragment of the anti-PsaA Ab 5-9A7 (antibody, V domains shown)
VH: EVQLVESGGGLVQPGGSLRLSCAASGFTFSSFWMSWVRQAPGKGLEWVANIKQDGSEKFYVDSVKGRFTISRDNAKNSLYLQMNSLRAEDTAVYYCARDRITMVRPYYYFYNGLDVWGQGTTVTVSS
VL: EIVLTQSPATLSLSPGERATLSCRASQSVSSYLAWYQQKPGQAPRLLIYDASNRATGIPARFSGSGSGTDFTLTISSLEPEDFAVYYCQQRSNWPPFTFGPGTKVDIK
notes: F(ab')2 fragment made by pepsin digestion of the human antibody 5-9A7; also called anti-PsaA F(ab')2
As to B1, the binding result is recorded as “no binding”.
